Results from patent publication US20230091105A1 (NORTHWESTERN UNIVERSITY, published 2023).
Blank lines part the entries; values can stand above or below the binder they belong to.

Legend:
Tie2 receptor on HUVEC [1] = molecular target: T1, Tie2 receptor on HUVEC (human, UniProt Q02763 23-1124); experiment: cell-based or functional assay
Tie2 receptor on HUVEC [2] = molecular target: T1, Tie2 receptor on HUVEC; experiment: summary sentence of Example 3 (co-IP and HUVEC activation)

T1 sequence (Q02763 23-1124): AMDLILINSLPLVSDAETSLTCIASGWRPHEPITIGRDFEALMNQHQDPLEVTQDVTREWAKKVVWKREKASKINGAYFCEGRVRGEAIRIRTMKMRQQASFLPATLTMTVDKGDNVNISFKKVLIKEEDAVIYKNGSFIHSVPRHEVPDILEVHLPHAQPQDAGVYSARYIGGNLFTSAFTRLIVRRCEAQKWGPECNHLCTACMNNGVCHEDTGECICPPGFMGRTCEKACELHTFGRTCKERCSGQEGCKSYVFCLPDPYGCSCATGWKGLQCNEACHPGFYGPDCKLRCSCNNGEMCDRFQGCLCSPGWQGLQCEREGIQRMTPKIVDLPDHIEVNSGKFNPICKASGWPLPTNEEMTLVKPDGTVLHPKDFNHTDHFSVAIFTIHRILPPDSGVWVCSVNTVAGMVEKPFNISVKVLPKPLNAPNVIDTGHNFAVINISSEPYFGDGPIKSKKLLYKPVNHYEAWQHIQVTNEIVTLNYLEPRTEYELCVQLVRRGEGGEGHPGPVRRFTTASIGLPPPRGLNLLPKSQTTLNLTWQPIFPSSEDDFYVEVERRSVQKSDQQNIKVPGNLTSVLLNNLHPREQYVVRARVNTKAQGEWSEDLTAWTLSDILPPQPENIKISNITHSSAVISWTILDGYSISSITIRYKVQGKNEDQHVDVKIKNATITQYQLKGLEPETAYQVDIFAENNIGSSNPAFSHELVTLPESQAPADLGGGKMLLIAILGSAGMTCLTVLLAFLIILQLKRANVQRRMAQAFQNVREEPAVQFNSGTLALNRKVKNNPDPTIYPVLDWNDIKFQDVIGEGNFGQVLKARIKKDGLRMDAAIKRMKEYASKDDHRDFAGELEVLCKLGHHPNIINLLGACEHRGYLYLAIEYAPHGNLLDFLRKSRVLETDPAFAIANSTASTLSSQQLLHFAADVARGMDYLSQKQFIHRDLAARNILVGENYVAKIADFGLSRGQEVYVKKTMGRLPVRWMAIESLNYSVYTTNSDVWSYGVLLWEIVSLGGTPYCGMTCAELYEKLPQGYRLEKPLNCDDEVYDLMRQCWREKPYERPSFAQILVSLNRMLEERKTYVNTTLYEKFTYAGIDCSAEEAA

phosphorylation level of AKT (pAKT) in HUVEC treated for 20 minutes, EC50 (Tie2 receptor on HUVEC [1]): 87 ng/mL
B1: ANG1-C4BP (designed binder, not shown: small tags and cut ends)
chain: KPFRDCADVYQAGFNKSGIYTIYINNMPEPKKVFCNMDVNGGGWTVIQHREDGSLDFQRGWKEYKMGFGNPSGEYWLGNEFIFAITSQRQYMLRIELMDWEGNRAYSQYDRFHIGNEKQNYRLYLKGHTGTAGKQSSLILHGADFSTKDADNDNCMCKCALMLTGGWWFDACGPSNLNGMFYTAGQNHGKLNGIKWHYFKGPSYSLRSTTMMIRPLDFGGGGSETPEGCEQVLTGKRLMQCLPNPEDVKMALEVYKLSLEIEQLELQRDSARQSTLDKEL

binding result (Tie2 receptor on HUVEC [2]): binds
B2: C4BP-ANG1 (designed binder, not shown: small tags and cut ends)
chain: ETPEGCEQVLTGKRLMQCLPNPEDVKMALEVYKLSLEIEQLELQRDSARQSTLDKELGGGGSKPFRDCADVYQAGFNKSGIYTIYINNMPEPKKVFCNMDVNGGGWTVIQHREDGSLDFQRGWKEYKMGFGNPSGEYWLGNEFIFAITSQRQYMLRIELMDWEGNRAYSQYDRFHIGNEKQNYRLYLKGHTGTAGKQSSLILHGADFSTKDADNDNCMCKCALMLTGGWWFDACGPSNLNGMFYTAGQNHGKLNGIKWHYFKGPSYSLRSTTMMIRPLDF
notes: Heptamer through disulfide-bridged C4BP segment; also called C4BP-ANG1 chimeric fusion protein
